Results from patent US20230051580A1 (HUDSON INSTITUTE OF MEDICAL RESEARCH, published 2023).

Legend:
Assay in all cases: SPR (ProteOn XPR36), antibody immobilised, antigen applied
[1] = target: T1, recombinant full-length (mature) human CXCL10 (human, UniProt P02778 22-98)
T1 construct: Recombinant protein from Genscript, used for immunisation and as the assay standard; also called full-length CXCL10; IP-10
T1 sequence: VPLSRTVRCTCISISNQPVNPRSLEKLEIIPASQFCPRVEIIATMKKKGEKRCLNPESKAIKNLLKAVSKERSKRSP
Method: (§1) Two monoclonal antibodies; namely mAb-RA2 specific for full length, N-terminally intact CXCL10, and mAb-RG2 specific for both full length and truncated CXCL10, were analysed by Surface Plasmon Resonance (SPR) for binding affinity against both forms of CXCL10. Experiments were performed using a ProteOn XPR36 SPRi biosensor (BioRad), equipped with a GLC chip. The chip was conditioned with 0.5% SDS, 50 mM NaOH and 100 mM HCl, and then the lanes were activated using equal parts 1-Ethyl-3-(3-dimethylaminopropyl) carbodiimide (EDAC) and N-Hydroxysuccinimide (NETS). The antibodies were immobilised in separate lanes at a concentration of 50 μg/mL in sodium acetate buffer (pH4.5), then each lane deactivated using ethanolamine. Antigens were applied to each lane, and binding was recorded as RU. All channels were regenerated using 0.85% […] between applications of antigen. Interspot and control RU were subtracted to give specific binding.
(§2) The inventors developed a monoclonal antibody that could differentiate between the N-terminally intact, chemotactically active form of CXCL10 and all other variants. Using full-length CXCL10 protein as the antigen, hybridoma clones were isolated and screened for reactivity against (i) full-length CXCL10 protein; and (ii) short synthetic peptides, representing either the intact or truncated N-terminus of CXCL10. Antibodies secreted by clone mAb-RA2 recognized both full-length and N-terminally intact CXCL10, but not the N-terminally truncated form (Table 4). Antibodies secreted by clone mAb-RG2 reacted with all proteoforms of CXCL10 tested. […] The open reading frames encoding the variable regions of both antibodies was sequenced.

[2] = target: T2, short peptide comprising the intact N-terminus of human CXCL10 (NH2-VPLSRTVRCTCISISNQPVNPRSLE-COOH) (human)
T2 construct: Synthesised by Mimotopes; also called N-terminally intact CXCL10 peptide
T2 peptide: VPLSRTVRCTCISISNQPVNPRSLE
Method: as §1, §2

[3] = target: T3, short peptide comprising the truncated N-terminus of human CXCL10 (NH2-LSRTVRCTCISISNQPVNPRSLE-COOH) (human)
T3 construct: Synthesised by Mimotopes; also called VP-truncated N-term; N-terminally truncated form
T3 peptide: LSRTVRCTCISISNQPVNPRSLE
Method: as §1, §2

B1: anti-CXCL10 monoclonal antibody mAb-RA2 (antibody, V domains shown)
VH: QVQLQQPGAELVRPGASVKLSCKASGYTFTSHWMIWVKQRPGQGLEWIGMIDPSDSATHYNQMFKDKATLTVDKSSSTAYMQLSSLTSEDSAVYYCANTRHDESWGQGTLVTVSA
VL: DIQMTQSPSSLSASLGGRVTITCKASQDIHKYIAWYQHKPGKGPRLLIYDTSTLQPGIPSRFTGSGSGRDYSFSISNLEPEDIATYYCLQYDDLYTFGGGTKLEIKR
notes: It was immobilised on the chip in SPR, and used biotinylated as the detection antibody in the sandwich ELISA (ART); also called anti-CXCL10 antibody RA2
Kd [1]: 0.49 nM
Kd [2]: 0.736 nM
binding result [3]: no binding

B2: anti-CXCL10 monoclonal antibody mAb-RG2 (antibody, V domains shown)
VH: QIQLVQSGPDLKKPGETVKISCKASGYTFTNYGMNWVKQAPGKGLKWMAWINTNSGEPTYAEEFKGRFALSLDTSASTAYLQINNLKNEDTATYFCARYTGEFFYNGSSYVSYWYFDVWGAGATVTVSS
VL: DIVLTQSPASLAVSLGQRATISCRASKSVSSSGYSYMHWYQQKPGQPPKLLIYLASNLESGVPARFSGSGSGSDFTLNIHPVEEEDAATYYCQHSRDLPWTFGGGTKLEIKR
notes: It was immobilised on the chip in SPR, and used biotinylated as the detection antibody in the sandwich ELISA (ART); also called anti-CXCL10 antibody RG2
Kd [1]: 0.00389 nM
Kd [2]: 3.54 nM
Kd [3]: 3 nM
